Data from patent publication EP4722370A1.

Columns and labels:
[1] = target: his-tagged DLL3 antigen protein (UniProt Q9NYJ7); experiment: flow cytometry; transduced T cells, method of the earlier example (his-tagged DLL3 staining)
[2] = target: his-tagged DLL3 antigen protein (UniProt Q9NYJ7); experiment: flow cytometry; transduced T cells with 3 ug/ml his-tagged DLL3, AF647 secondary antibody

Chain of UniProt Q9NYJ7 (Q9NYJ7 27-492 limits assumed): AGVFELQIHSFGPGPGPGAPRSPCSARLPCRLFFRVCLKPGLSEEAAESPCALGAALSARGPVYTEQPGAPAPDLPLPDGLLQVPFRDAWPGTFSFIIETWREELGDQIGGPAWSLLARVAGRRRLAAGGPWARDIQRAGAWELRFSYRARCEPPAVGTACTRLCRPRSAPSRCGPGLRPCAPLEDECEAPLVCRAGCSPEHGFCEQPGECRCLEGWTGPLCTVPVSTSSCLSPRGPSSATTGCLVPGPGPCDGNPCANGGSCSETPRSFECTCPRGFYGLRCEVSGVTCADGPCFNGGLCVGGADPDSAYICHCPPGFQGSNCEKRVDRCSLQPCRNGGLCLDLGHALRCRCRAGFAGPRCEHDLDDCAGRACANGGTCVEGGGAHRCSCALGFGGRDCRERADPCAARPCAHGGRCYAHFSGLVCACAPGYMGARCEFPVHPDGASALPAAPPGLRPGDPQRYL

B1: DLL3-CAR09 (protein)
chain: DIVMTQSPLSLPVTPGEPASISCRASQTISDYLHWYLQKPGQSPQLLIKYASQSISGVPDRFSGSGSGSDFTLKISRVEAEDVGVYYCQQGHSFPLTFGQGTKLEIKGGGGSGGGGSGGGGSEVQLVQSGAEVKKPGASVKVSCKASGYTFTSYWMHWVRQAPGQRLEWMGTIYPGNSDTRYNQKFKDRVTITADTSASTAYMELSSLRSEDTAVYYCTRSYDYGDLDYWGQGTTVTVSSAAAIEVMYPPPYLDNEKSNGTIIHVKGKHLCPSPLFPGPSKPFWVLVVVGGVLACYSLLVTVAFIIFWVRSKRSRLLHSDYMNMTPRRPGPTRKHYQPYAPPRDFAAYRSRVKFSRSADAPAYQQGQNQLYNELNLGRREEYDVLDKRRGRDPEMGGKPRRKNPQEGLYNELQKDKMAEAYSEIGMKGERRRGKGHDGLYQGLSTATKDTYDALHMQALPPR
- CAR expression level (% of T cells stained with his-tagged DLL3 antigen protein) [1]: 74%
- CAR expression level (% of T cells stained with his-tagged DLL3 antigen protein) [2]: 69%
